Experimental data from the supplement of paper PMC12042874.
± gives the uncertainty stated by the source.

Assay: amyloid nucleation score (Sup35N fusion, yeast selection) (log enrichment); library NNK1; higher = more nucleation; inactive = no reads after selection
In short: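 The nucleation score is the DiMSum log enrichment of output over input reads, centred on the mode score of non-aggregating sequences. Only sequences with 100 or more input reads were scored, using Illumina sequencing of input and output plasmid inserts. Psi-negative yeast expressing Sup35N fused to peptides of 20 random codons were induced 24 hours with 100 μM copper sulfate and grown 7 days at 30°C on medium lacking adenine and uracil.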

| Substance | amyloid nucleation score |
| --- | --- |
| FLYSSLFDKVNCCNRPPVSS | -0.014 ± 0.7 |
| FMCVGSYDPYPWP | 0.659 ± 0.51 |
| FMDKVFSIP | -0.101 ± 0.78 |
| FMGIGPDVEDLLW | -0.538 ± 0.41 |
| FMLSFDTTFPLKVLIRTSPE | -0.858 ± 0.85 |
| FMPYWNTLNFMSYGVRLIHK | 0.231 ± 0.65 |
| FMSICPSTNGRCACRWLRM | 0.857 ± 0.98 |
| FMVACWHSKWAYDNCYYNSS | inactive |
| FMWKINWRENLYRLYSFSAY | -0.11 ± 0.51 |
| FMYILYYDMWYACASFR | inactive |
| FNHMLSMVGSRVCYLAMSFV | 0.17 ± 0.58 |
| FNLGTNK | -0.442 ± 0.3 |
| FNLISGKIGYRLLQTCIMMM | -0.963 ± 0.51 |
| FNLSLLRSSCAVH | 1.04 ± 0.62 |
| FNRCMFHFGDEVVKELL | -0.376 ± 0.91 |
| FNRKISFFCN | -0.393 ± 0.4 |
| FNVKSSMRNPGCIPWHRATY | -0.616 ± 1.7 |
| FNWDGQFAVCMWKS | -0.221 ± 0.38 |
| FPMWYYH | -0.366 ± 0.74 |
| FPSLFFLLA | inactive |
| FPWSGAWMD | 0.029 ± 1 |
| FQATR | -0.238 ± 0.32 |

| Substance | amyloid nucleation score |
| --- | --- |
| FQGRNYECIFVDFLRSQKGV | 0.292 ± 1.2 |
| FQLRNL | 0.414 ± 0.34 |
| FQVFYFGCGRHVMVSSYRWV | -0.363 ± 0.54 |
| FRDFWLDNVLNMMVGCAARD | -0.692 ± 1.2 |
| FRELVDERLRRASQFHWFHF | 0.557 ± 0.8 |
| FRFSGHWGETIASRTG | 0.376 ± 0.95 |
| FRFVG | -1.53 ± 0.83 |
| FRKCVGAQGGSGSWNGCPSE | 1.99 ± 0.23 |
| FRKLAIFHLAE | 0.207 ± 0.69 |
| FRLGPLEQ | -1.61 ± 1.7 |
| FRLRL | 0.019 ± 0.83 |
| FRNCVF | -0.141 ± 0.49 |
| FRPMEWLTFCSVRGLLLTIP | inactive |
| FRRIFSWACPV | 0.352 ± 0.58 |
| FRSELMFSVLPFLGASSVAC | 1.44 ± 0.69 |
| FRSFKNTY | -1.3 ± 0.45 |
| FRSFLLPR | 0.644 ± 0.54 |
| FRTHRPTIFHFIGMRLRTLA | 0.399 ± 0.91 |
| FSALLIPENISD | -1.25 ± 1.7 |
| FSASLNDLGLQKRVNVSVD | -0.413 ± 0.49 |
| FSCYM | 0.245 ± 0.9 |
| FSDTRTGGDSTPKN | 0.108 ± 0.36 |

| Substance | amyloid nucleation score |
| --- | --- |
| FSDVQCG | inactive |
| FSFYS | -0.44 ± 0.65 |
| FSLNQCVKGHVFGATICTLR | 1.86 ± 0.43 |
| FSMVAPTVILLKYYN | -0.111 ± 0.21 |
| FSPFLIMVSESPFHPIPELR | -0.991 ± 2.4 |
| FSRISCFP | 0.638 ± 0.61 |
| FSRNAAYMIICSTGRRKFWH | 3.75 ± 0.074 |
| FSSCRPMIYLRCTEYNG | -0.41 ± 1.9 |
| FSSNLLECRCLWKTQASNST | 0.271 ± 0.33 |
| FSTFYY | inactive |
| FSTLICIGVE | -0.35 ± 0.65 |
| FSVNILQQFIMGQSRICVGA | -0.044 ± 0.38 |
| FSVYAWGVFFDAVWFSCAVA | 1.29 ± 0.84 |
| FSWTYVYYNN | 0.433 ± 0.89 |
| FSYRWGLVFSFRDVKLL | 2.27 ± 0.11 |
| FTCFATCCVLMNNVYYFMTL | 5.085 ± 0.05 |
| FTCLVNSNSPL | 0.606 ± 0.71 |
| FTCMCH | inactive |
| FTFKWMGSPWLWR | 0.485 ± 1.2 |
| FTFSFLYFFQWCHTGAPARF | 0.602 ± 0.73 |
| FTIIFSTYISMVVVDLRVVP | -0.409 ± 0.36 |
| FTISGLYSFFVSLLGKEYYG | -0.074 ± 0.43 |

| Substance | amyloid nucleation score |
| --- | --- |
| FTMLYSVYPSGRPGSQSGR | 1.92 ± 0.21 |
| FTQRSSVR | 0.651 ± 0.7 |
| FTRDVYRWKYPNYLVKYSTP | -0.199 ± 0.85 |
| FTSLYSNILHKSTCLQ | 0.288 ± 0.9 |
| FTSRRATCDIGNSMNACFER | 1.5 ± 0.73 |
| FTVLSVVSALQGGRHYPLMG | 0.357 ± 0.33 |
| FVFLISAL | -0.617 ± 0.5 |
| FVGLVDN | 0.051 ± 0.49 |
| FVGSRRGLARVAEYGWLYHG | -0.464 ± 0.74 |
| FVHVYLERDRPNLTPFI | 0.084 ± 0.33 |
| FVIDACIFC | 9.445 ± 0.071 |
| FVLRTFQVDNSRQDTTNVST | 0.309 ± 0.48 |
| FVMRAFNLIRWVGSACNLET | inactive |
| FVNFWN | 0.473 ± 0.53 |
| FVPVKFITIGSYVLHTGSLL | 0.834 ± 0.73 |
| FVSPVTSSQNSPVIVVRSLL | -0.561 ± 0.48 |
| FVYLR | 0.98 ± 0.55 |
| FWNLVF | 1.36 ± 0.64 |
| FWSLYD | 0.003 ± 0.4 |
| FYASQRSTPHAVFLCNALKV | 0.304 ± 0.52 |
| FYCVDN | 0.547 ± 0.65 |
| FYFRHSVLMCKHLFQFDYKE | 0.668 ± 0.45 |

| Substance | amyloid nucleation score |
| --- | --- |
| FYGTLVCVRRYSVVLNSNLE | 0.751 ± 0.93 |
| FYLLTGLFSQVGTLLFHWSR | -0.819 ± 0.51 |
| FYVLATFSNC | 0.618 ± 0.4 |
| FYVMCSARSQHAFSNKYLGY | -0.165 ± 0.26 |
| GAGIENPSASVIMKREWEVL | 0.382 ± 0.44 |
| GAVARIIDAVCVRLV | -0.643 ± 1.1 |
| GAVIRRWVIGSGALRDSCND | 0.382 ± 1.2 |
| GCCSEDFNINGVFCSCPKFC | 7.157 ± 0.057 |
| GCDYARPINWCDTPYGSFNL | -2.49 ± 2.4 |
| GCGRGMLLGFAPWITCPWMS | 0.971 ± 0.49 |
| GCRGFLIPRMVYS | -0.398 ± 0.97 |
| GCSIEFFDYGGY | -0.183 ± 0.74 |
| GCYWIMAMGQILRRLEDAAG | 1.14 ± 0.72 |
| GDDVRRPVVSVHNSRGYSFG | -0.235 ± 0.32 |
| GDGVGFVLITHWDVVDDMGC | 0.724 ± 0.93 |
| GDIRGQMCMWYLW | -1.73 ± 2.7 |
| GDRRLSVLGPYMARSVWGER | -0.242 ± 0.31 |
| GDSVESQILLVVGCIY | -0.416 ± 1.2 |
| GEERHAAYTNWFFLRCLLTY | -0.046 ± 0.65 |
| GEFVWKEASATCCSWGKLRR | 0.425 ± 0.72 |
| GEQGNPIIESSREFSSVEHN | 4.33 ± 0.078 |
| GESCLDSRFRNDDNR | 0.09 ± 0.33 |

| Substance | amyloid nucleation score |
| --- | --- |
| GESRGS | 0.473 ± 0.43 |
| GETLEVWFFRRRVIRWR | inactive |
| GFFLSPLVRIISMTEMKVMK | 0.571 ± 1.2 |
| GFGSMLVEVTLYSAVAVAAR | 0.852 ± 0.52 |
| GFGWLCYCGPYNLGRFSLSV | -0.124 ± 0.66 |
| GFLNYHWAGSYFERGM | 3.04 ± 0.13 |
| GFPSRSIHFKLYLAANMQ | 1.07 ± 0.53 |
| GFSMTKCAYTNTH | 1.68 ± 0.17 |
| GFVGFTGF | 0.308 ± 0.77 |
| GGDRGHMFGMKSATVRWLAY | 0.572 ± 0.45 |
| GGESQFLGFTHCKLAFCSWW | 0.236 ± 0.5 |
| GGFFALTYVWSHVHRWS | inactive |
| GGFHYAVDWSCLRNIVWADL | -1.2 ± 2.4 |
| GGLCTLVVAVGDSWIDRR | -0.34 ± 0.43 |
| GGLRWRRCFLP | -1.58 ± 0.93 |
| GGQFHEEFSNEINEVQDCVL | -0.15 ± 0.75 |
| GGQSS | 2.97 ± 0.16 |
| GGRSS | -0.058 ± 0.58 |
| GGSDFWIGN | 0.277 ± 0.48 |
| GGTNFKDDDV | 0.683 ± 1 |
| GGTRDVFEFHNSDTPDAVYQ | -0.043 ± 0.3 |
| GGVGLDWLEVVFVCTRGQYD | inactive |
